In publication PMC5669500, “Scaffolding the cup-shaped double membrane in autophagy” (PLoS Computational Biology, 2017):
Numbering of substitutions follows the chain as printed. Names may count otherwise.

B1: Atg17, wild type (natural protein, Saccharomyces cerevisiae, UniProt Q06410 1-417, looked up)
chain: MNEADVTKFVNNARKTLTDAQLLCSSANLRIVDIKKKLSSWQLSISKLNFLIVGLRQQGKFLYTILKEGIGTKLIQKQWNQAVLVVLVDEMKYWQYEITSKVQRLDGIVNELSISEKDDTDPSKLGDYISRDNVNLLNDKLKEVPVIERQIENIKLQYENMVRKVNKELIDTKLTDVTQKFQSKFGIDNLMETNVAEQFSRELTDLEKDLAEIMNSLTQHFDKTLLLQDKKIDNDEREELFKVVQGDDKELYNIFKTLHEVIDDVDKTILNLGQFLQAKIKEKTELHSEVSEIINDFNRNLEYLLIFKDISNLIDSFKNSCTQDIQTTKELCEFYDNFEESYGNLVLEAKRRKDVANRMKTILKDCEKQLQNLDAQDQEERQNFIAENGTYLPETIWPGKIDDFSSLYTLNYNVKNP
notes: Atg17, Saccharomyces cerevisiae; The Atg17 chain of m1; source: E. coli BL21 (DE3), co-expressed with Atg31 and His6-Atg29 from pST39, purified (Ni-NTA, Superose 6)
B2: Atg17 mutant M5 (K92D/L141D) (natural protein, Saccharomyces cerevisiae, UniProt Q06410 1-417, looked up)
chain: B1 chain with K92D, L141D
notes: Atg17, Saccharomyces cerevisiae; The Atg17 chain of m6; source: E. coli BL21 (DE3), co-expressed with Atg31 and His6-Atg29 from pST39, purified (Ni-NTA, Superose 6)
B3: Atg17 mutant M4 (K164D/K173D/R299D) (natural protein, Saccharomyces cerevisiae, UniProt Q06410 1-417, looked up)
chain: B1 chain with K164D, K173D, R299D
notes: Atg17, Saccharomyces cerevisiae; The Atg17 chain of m5; source: E. coli BL21 (DE3), co-expressed with Atg31 and His6-Atg29 from pST39, purified (Ni-NTA, Superose 6)
B4: Atg17 mutant M2 (K318D/K329D/Y93E/W94E) (natural protein, Saccharomyces cerevisiae, UniProt Q06410 1-417, looked up)
chain: B1 chain with Y93E, W94E, K318D, K329D
notes: Atg17, Saccharomyces cerevisiae; The Atg17 chain of m3; source: E. coli BL21 (DE3), co-expressed with Atg31 and His6-Atg29 from pST39, purified (Ni-NTA, Superose 6)
B5: Atg17 mutant M3 (K8D/R14D/K249D) (natural protein, Saccharomyces cerevisiae, UniProt Q06410 1-417, looked up)
chain: B1 chain with K8D, R14D, K249D
notes: Atg17, Saccharomyces cerevisiae; The Atg17 chain of m4; source: E. coli BL21 (DE3), co-expressed with Atg31 and His6-Atg29 from pST39, purified (Ni-NTA, Superose 6)
B6: Atg17 mutant M1 (K318D/Q326D/K329D) (natural protein, Saccharomyces cerevisiae, UniProt Q06410 1-417, looked up)
chain: B1 chain with K318D, Q326D, K329D
notes: Atg17, Saccharomyces cerevisiae; The Atg17 chain of m2; source: E. coli BL21 (DE3), co-expressed with Atg31 and His6-Atg29 from pST39, purified (Ni-NTA, Superose 6)

Target: the molecule itself
Experiment: SEC; ternary complex co-expressed in E. coli, captured on Ni-NTA by His6-Atg29, then Superose 6 10/300GL in 20 mM Tris pH 8, 200 mM NaCl, 0.1 mM TCEP; peak fractions analysed by SDS-PAGE

Protein | binding result
B1 | binds
B2 | binds
B3 | binds
B4 | binds
B5 | binds
B6 | binds
